Assay results taken from doi:10.1101/093054 (bioRxiv, 2016).

T1: SPD-5::TagRFP (C. elegans, UniProt P91349 1-1198)
T1 sequence (looked up): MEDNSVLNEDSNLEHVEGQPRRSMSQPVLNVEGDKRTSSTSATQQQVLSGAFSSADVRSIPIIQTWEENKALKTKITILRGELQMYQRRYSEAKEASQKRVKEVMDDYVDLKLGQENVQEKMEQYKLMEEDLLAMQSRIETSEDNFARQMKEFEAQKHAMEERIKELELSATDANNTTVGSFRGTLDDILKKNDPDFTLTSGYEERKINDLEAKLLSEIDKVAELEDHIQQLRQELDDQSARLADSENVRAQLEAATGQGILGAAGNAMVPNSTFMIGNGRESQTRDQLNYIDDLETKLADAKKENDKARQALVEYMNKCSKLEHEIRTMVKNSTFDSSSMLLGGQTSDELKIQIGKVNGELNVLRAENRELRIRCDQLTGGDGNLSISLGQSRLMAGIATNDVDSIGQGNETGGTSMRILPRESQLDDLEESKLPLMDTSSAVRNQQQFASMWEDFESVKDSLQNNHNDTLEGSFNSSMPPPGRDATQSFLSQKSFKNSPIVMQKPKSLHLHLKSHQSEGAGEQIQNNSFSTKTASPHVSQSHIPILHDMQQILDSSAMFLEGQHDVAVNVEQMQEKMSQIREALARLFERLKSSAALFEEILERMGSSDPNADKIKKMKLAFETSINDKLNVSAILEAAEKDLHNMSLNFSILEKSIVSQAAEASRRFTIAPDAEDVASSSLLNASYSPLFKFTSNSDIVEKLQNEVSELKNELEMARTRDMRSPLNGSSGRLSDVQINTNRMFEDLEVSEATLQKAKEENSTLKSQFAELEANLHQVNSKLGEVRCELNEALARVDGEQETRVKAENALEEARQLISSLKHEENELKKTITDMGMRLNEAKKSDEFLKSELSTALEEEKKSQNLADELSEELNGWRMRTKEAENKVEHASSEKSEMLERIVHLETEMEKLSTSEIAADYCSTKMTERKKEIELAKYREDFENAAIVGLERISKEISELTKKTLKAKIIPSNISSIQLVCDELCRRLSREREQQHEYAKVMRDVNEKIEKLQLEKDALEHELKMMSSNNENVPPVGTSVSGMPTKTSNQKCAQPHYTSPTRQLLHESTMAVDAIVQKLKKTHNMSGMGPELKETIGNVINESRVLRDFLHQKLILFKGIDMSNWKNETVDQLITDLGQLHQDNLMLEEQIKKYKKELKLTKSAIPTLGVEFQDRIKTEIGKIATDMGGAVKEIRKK

T2: SPD-5::TagRFP (C. elegans), P91349
T2 chain: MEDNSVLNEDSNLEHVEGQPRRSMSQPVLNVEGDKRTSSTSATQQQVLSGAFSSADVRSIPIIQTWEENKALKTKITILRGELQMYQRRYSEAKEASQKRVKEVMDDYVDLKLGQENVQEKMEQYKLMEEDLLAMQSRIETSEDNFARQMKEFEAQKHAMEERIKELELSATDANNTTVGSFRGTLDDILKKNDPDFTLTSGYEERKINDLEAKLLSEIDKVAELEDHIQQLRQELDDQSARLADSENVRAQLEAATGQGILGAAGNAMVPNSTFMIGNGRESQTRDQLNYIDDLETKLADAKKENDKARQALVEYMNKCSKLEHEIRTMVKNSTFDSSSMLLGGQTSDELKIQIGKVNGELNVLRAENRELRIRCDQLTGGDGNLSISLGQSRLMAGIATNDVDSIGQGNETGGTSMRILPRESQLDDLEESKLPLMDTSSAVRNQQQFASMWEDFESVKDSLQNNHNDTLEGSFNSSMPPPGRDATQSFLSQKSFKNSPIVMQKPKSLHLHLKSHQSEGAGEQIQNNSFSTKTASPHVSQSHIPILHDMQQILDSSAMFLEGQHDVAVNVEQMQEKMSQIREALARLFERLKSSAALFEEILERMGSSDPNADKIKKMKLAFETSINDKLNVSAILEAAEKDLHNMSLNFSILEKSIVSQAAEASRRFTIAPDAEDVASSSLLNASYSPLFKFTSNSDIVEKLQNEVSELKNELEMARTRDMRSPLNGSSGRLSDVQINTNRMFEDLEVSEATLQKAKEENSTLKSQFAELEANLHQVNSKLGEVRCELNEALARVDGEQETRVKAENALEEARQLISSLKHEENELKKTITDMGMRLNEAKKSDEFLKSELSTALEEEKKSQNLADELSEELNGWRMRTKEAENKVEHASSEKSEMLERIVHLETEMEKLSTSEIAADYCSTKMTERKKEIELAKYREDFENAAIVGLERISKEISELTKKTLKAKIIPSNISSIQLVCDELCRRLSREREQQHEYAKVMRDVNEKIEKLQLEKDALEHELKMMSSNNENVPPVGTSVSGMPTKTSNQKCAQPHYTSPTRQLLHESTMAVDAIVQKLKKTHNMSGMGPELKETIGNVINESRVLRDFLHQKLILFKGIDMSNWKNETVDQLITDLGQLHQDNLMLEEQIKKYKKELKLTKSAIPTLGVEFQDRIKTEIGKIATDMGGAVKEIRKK


Legend:
SPD-5::TagRFP = molecular target: T1, SPD-5::TagRFP; assay: partitioning into droplets by fluorescence microscopy
[1] = molecular target: T2, SPD-5::TagRFP (C. elegans), P91349; assay: as above; conditions: remark: other sources report otherwise

Molecule | partition coefficient (droplet vs. bulk) (SPD-5::TagRFP) | partition coefficient (droplet vs. bulk) [1]
TPXL-1::GFP (natural protein) | 59 | 
GFP::SPD-2 (natural protein, C. elegans, UniProt P91870 1-824, looked up) MEDDAPMNLCNEQFEEIEDSPIDDNDNESFYNADGDVELEEEEVHETPKNFKNGGRFKTNMTNPKVNDLTTIEEKNEDLRSAASSRSASRPASVMSDKSFSSQFEFQSGGENAIEEYTNQVFADENKADLLFPETSKFMNGASPPKDKHHSWEPSIHHYDKQPPPDIQTNSPVFGNLNHRKNKLIPQARAKPGANDNEIVERDNDENVPTTSDKSAFITSPMNSTNHDEKTSTPKRPTNRKIGQYQGPNFDLSSIYVGSPQHQNTSISTGQQMPTSSYSHAHSETMMTNQTINESMVRRVLNGNNKNQDLFAALEEARKRRAAQPSKPDFRINTTRTRVPIKPTSARHSGNVVSSTSNDNTTAASSKDLTTSRKAMETFRQNASMADATNSNTASMTSILSTISTARTDISRSSRNHGGGFSNTSVSTVIPANNGNVSLSHGRDGRDSVSSVRTMSRASSTSTVYAGSTFSGVSKPLRIHAKRVAFGCVAVGETLRVEVEVENISDRQCLVRASTDSTTPVYQILDNKLTMVDPKKSIKFQVSFSPSSVGRYQVIMSIEVPAQNFIHKIPMWGNGGIAKFVPTSPDLQQTINQSEYAMCTSCAKRISFKISNSAGTRDGFAMIKVFDSAMRQLPDGCVAFFPAPGFIVKKKSDKRVDIRIDSSYIDLHDENNFRTSSSLSTASTTSSFQRRILPGAKFFVHVVWGEETMRTRLRLLEVRTGQHQLIDGHDFTSFQFSDEEVLRAVPVGFPAIKPEDRDLFAASYRSFFINFFTSTTEFRAATSRKKKEICSNDDSTLLETTAFRNQTFVNDVTIVPNTRFSNRK | 67 | 
PLK-1::GFP, P34331 1-648 (enzyme) MNRLPNIAKPPQKSNQRKEKAPPEVPALIADKDRGTYYEKGRFLGKGGFAHCYELTNRATREVVAGKVVPKSMLVKQYQRDKMTQEVQIHRELGHINIVKLFNFFEDNLNVYITLELCARRSLMELHKRRKAVTEPEARYFTHQIVDGVLYLHDLNIIHRDMKLGNLFLNDDLVVKIGDFGLATTVNGDERKKTLCGTPNYIAPEVLNKAGHSFEVDIWAVGCILYILLFGQPPFESKSLEETYSRIRHNNYTIPSIATQPAASLIRKMLDPEPTRRPTAKQVQRDGFFKSGFMPTRLPVSCLTMVPKFGGHETSMMEENVAPRGVDARSQRPLNGRAGLSALPQHIVSNNADRERAQQQAAEATFREPEDAYLSQLFHQVAVLLEQRIPGLEEEEAALDGYQSPECLPVFWISKWVDYSDKYGIGYQLCDNSVGVLFNDNSRIMLDQAGNELTYIEKSNKEHYFSMHSGEMPGLLNKKVTLLKYFRSYMNDHLVKAGEGSEQRAGDDLARLPTLRVWFRTKSAIVLHLSNGTVQINFFNDHVKMMMCPLMQAVTFIDQNKRMLTYKLNNLQRNGCPEKFLHRLKYAKTMIERLMSDANVVSQNPARQPDMPRSMAAARSASAGSRGPNQAASHLPQSASGSNIHPRR |  | 19.8
EB1-GFP (natural protein, UniProt Q15691 1-268, looked up) MAVNVYSTSVTSDNLSRHDMLAWINESLQLNLTKIEQLCSGAAYCQFMDMLFPGSIALKKVKFQAKLEHEYIQNFKILQAGFKRMGVDKIIPVDKLVKGKFQDNFEFVQWFKKFFDANYDGKDYDPVAARQGQETAVAPSLVAPALNKPKKPLTSSSAAPQRPISTQRTAAAPKAGPGVVRKNPGVGNGDDEAAELMQQVNVLKLTVEDLEKERDFYFGKLRNIELICQENEGENDPVLQRIVDILYATDEGFVIPDEGGPQEEQEEY | 3.2 | 
ZYG-9::GFP (natural protein, C. elegans, UniProt G5EEM5 1-1415, looked up) MSNWDYLDEVDILPKLPPNFDELRESKKWQERKEALEALLKVLTDNERLSTKASYAELIGHLQMVLAKDANINCQALAAKCIGKFATGLRAKFSSFAGPLLPVIFEKMKEKKPMLREPLVDCSNEVGRTMQSLETGQEDILAALAKPNPQIKQQTALFVARQLDLVVPAKQPKGFIKAVVPVFGKLTGDADQDVREASLQGLGAVQRIIGDKNVKNLLGDASSDEGKMKKIGEYAEKSTASFAEEQAKNAPPVAPTSSTPSASAASGDPSGGTATAVVSSGAPVAEADPWDFLDAFDVLSKMPDGFDTNIESKKWQERKEALEGLLQLITANPKLDPKANYGALVERLQKVLEKDANINVAALAANCITGIANGLRTKFQPFAVSVTPIIFEKFKEKKPTLRDPLVACIDAVVATTNLEAVGEIVLAALGKPNPSIKTQTDLFLQRCFMKLNSQTMPKKTLKTLIPSLIKHSGDSDSEVREASYAAMGAMMRAIGEKPSLQLLADIASDNLKMSKIKEFHQKALDEAGPAEIAEMVKSIHKADAPPAAAPPKKTAPPKKQPEDEEVVEEEDEPLKPPPGDKKKKVPVKENEENEPPVVAPKAELLLSDNEDKKQRIKEEKQLKLVKWNFQAPTDEHISQLQTLLGNQAKVSLMSQLFHKDFKQHLAALDSLVRLADTSPRSLLSNSDLLLKWCTLRFFETNPAALIKVLELCKVIVELIRDTETPMSQEEVSAFVPYLLLKTGEAKDNMRTSVRDIVNVLSDVVGPLKMTPMLLDALKSKNARQRSECLLVIEYYITNAGISPLKSLSVEKTVAPFVGDKDVNVRNAAINVLVACFKFEGDQMWKAAGRMADKDKSLVEERIKRTGVKPGSGVVTSPPTGGPKILVPQQQGSVVRRPASRSRTREPEPEEVQSDTFTIRQDTMPPKTSSRYALRDDVFSSAMGRLDGTQVITPPQPVNGWSNNTFQMKRTNSSSSISSIDTSDQIQRSINNISSSLADVAQDAMFQVTYVLNQPEQRHLVDRRADLVFRASAAQLDLVIEEFNAGRDVSGTMDACTQMLFILMGGVETEHGLEPLNASPDTVKAIISSVLRCIIQIGNTESGYGMARSLNRLAMRLIYRVELSNLLCGLILAMTESLQMNTGITELVSKLSSKWCDELEKRRAQLRASDIVDSFNAFYVCALTELKMDISDSHILIVDNYLERVILQQGDVVLDAARRLSRPHMHLTSMINKILQMMRERKIDPIMPGTLEARMPQEDEAVVVRSGVQVSIDNILRDTSMAVKHIEQLNILIASSDRSWNEYMEYLKNNPMGELIKELVGECSRKKRIDFNLSHVVKSSMAVFKAMAATGPVQEEGRITPTDINRMDTMIVGTPLSRGDATITRARGNMIRPKRTTLSRDQMANIRHTLDRVKNH | 101 | 
